Test results published in article PMC12723722, “Phosphorylation event changes the RNA binding mode of EZH2 disordered segment”.

What was measured:
EZH2 loop WT = EZH2 loop WT (UniProt Q15910 340-435); assay: EMSA; small but clear shift; EMSA: LightShift RNA EMSA kit protocol, 1-2 nM refolded RNA, 30 min room temperature, 4 or 6% native PAGE, 0.5x TBE; MST: Monolith NT.115, standard treated capillaries, 40% MST power; binding buffer, salt and pH not given in the material; conditions: protein: recombinant; tags: His tag implied (pET22b, HisTrap); label: 3' biotin (EMSA); Cy5 aminoallyl-UTP for labelled RNA; hairpin (predicted)
Sequence of EZH2 loop WT (Q15910 340-435): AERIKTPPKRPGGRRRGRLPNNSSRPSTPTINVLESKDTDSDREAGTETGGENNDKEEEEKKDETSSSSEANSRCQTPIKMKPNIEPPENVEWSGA

Thymosin beta 4 (Tβ4) = Thymosin beta 4 (Tβ4) (UniProt P62328 2-44, not fully specified); assay: EMSA; EMSA: LightShift RNA EMSA kit protocol, 1-2 nM refolded RNA, 30 min room temperature, 4 or 6% native PAGE, 0.5x TBE; MST: Monolith NT.115, standard treated capillaries, 40% MST power; binding buffer, salt and pH not given in the material; conditions: protein: recombinant; label: 3' biotin (EMSA); Cy5 aminoallyl-UTP for labelled RNA; hairpin (predicted)
Sequence of Thymosin beta 4 (Tβ4) (P62328 2-44): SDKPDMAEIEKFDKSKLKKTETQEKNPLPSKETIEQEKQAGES

B1: R50 (structured_RNA)
RNA: AAGAAUGGCCUCGCGGAGGCAUGCGUCAUGCUAGCGUGCGGGGUACUCUU
binding result (EZH2 loop WT): binds
binding result (Thymosin beta 4 (Tβ4)): no binding
